{"source": "patent US20120269834A1", "about": "“IMMUNOGLOBULIN CLEAVAGE FRAGMENT VACCINE COMPOSITIONS” (priority 2010, published 2012)", "molecules": {"B1": {"name": "Plasmin: plasminogen co-incubated with plasminogen activators (protein, UniProt P00747 20-580; P00747 581-810, looked up)", "Plasmin heavy chain A": "EPLDDYVNTQGASLFSVTKKQLGAGSIEECAAKCEEDEEFTCRAFQYHSKEQQCVIMAENRKSSIIIRMRDVVLFEKKVYLSECKTGNGKNYRGTMSKTKNGITCQKWSSTSPHRPRFSPATHPSEGLEENYCRNPDNDPQGPWCYTTDPEKRYDYCDILECEEECMHCSGENYDGKISKTMSGLECQAWDSQSPHAHGYIPSKFPNKNLKKNYCRNPDRELRPWCFTTDPNKRWELCDIPRCTTPPPSSGPTYQCLKGTGENYRGNVAVTVSGHTCQHWSAQTPHTHNRTPENFPCKNLDENYCRNPDGKRAPWCHTTNSQVRWEYCKIPSCDSSPVSTEQLAPTAPPELTPVVQDCYHGDGQSYRGTSSTTTTGKKCQSWSSMTPHRHQKTPENYPNAGLTMNYCRNPDADKGPWCFTTDPSVRWEYCNLKKCSGTEASVVAPPPVVLLPDVETPSEEDCMFGNGKGYRGKRATTVTGTPCQDWAAQEPHRHSIFTPETNPRAGLEKNYCRNPDGDVGGPWCYTTNPRKLYDYCDVPQCAAPSFDCGKPQVEPKKCPGR", "Plasmin light chain B": "VVGGCVAHPHSWPWQVSLRTRFGMHFCGGTLISPEWVLTAAHCLEKSPRPSSYKVILGAHQEVNLEPHVQEIEVSRLFLEPTRKDIALLKLSSPAVITDKVIPACLPSPNYVVADRTECFITGWGETQGTFGAGLLKEAQLPVIENKVCNRYEFLNGRVQSTELCAGHLAGGTDSCQGDSGGPLVCFEKDKYILQGVTSWGLGCARPNKPGVYVRVSRFVTWIEGVMRNN", "modifications": "plasmin"}, "B2": {"name": "c7E3 IgG: anti-platelet integrin (αIIbβIIIa) murine-human IgG1 chimeric antibody (antibody, chains of the INN, looked up, V domains shown)", "VH": "EVQLQQSGTVLARPGASVKMSCEASGYTFTNYWMHWVKQRPGQGLEWIGAIYPGNSDTSYIQKFKGKAKLTAVTSTTSVYMELSSLTNEDSAVYYCTLYDGYYVFAYWGQGTLVTVSA", "VL": "EIVLTQSPVTLSVTPGDSVSLSCRASRDISNNLHWFQQTSHESPRLLIKYASQSMSGIPSRFSGSGSGTDFTLSINSVETEDFGMYFCQQTNSWPYTFGGGTKLEIK", "modifications": "IgG1", "notes": "anti-platelet integrin (αIIbβIIIa) murine-human IgG1 chimeric antibody"}, "B3": {"name": "c7E3 F(ab′)2: F(ab′)2 of c7E3 prepared using the bacterial enzyme IdeS (antibody, chains of the INN, looked up, V domains shown)", "VH": "B2 VH", "VL": "B2 VL", "modifications": "F(ab')2 IdeS-generated", "notes": "F(ab′)2 of c7E3 prepared using the bacterial enzyme IdeS"}, "B4": {"name": "Chymase: human protease (protein, UniProt P23946 22-247, looked up)", "Chymase": "IIGGTECKPHSRPYMAYLEIVTSNGPSKFCGGFLIRRNFVLTAAHCAGRSITVTLGAHNITEEEDTWQKLEVIKQFRHPKYNTSTLHHDIMLLKLKEKASLTLAVGTLPFPSQFNFVPPGRMCRVAGWGRTGVLKPGSDTLQEVKLRLMDPQACSHFRDFDHNLQLCVGNPRKTKSAFKGDSGGPLLCAGVAQGIVSYGRSDAKPPAVFTRISHYRPWINQILQAN"}, "B5": {"name": "Macrophage metalloelastase (MMP-12): recombinant human MMP (protein, UniProt P39900 106-470, looked up)", "Macrophage metalloelastase": "GPVWRKHYITYRINNYTPDMNREDVDYAIRKAFQVWSNVTPLKFSKINTGMADILVVFARGAHGDFHAFDGKGGILAHAFGPGSGIGGDAHFDEDEFWTTHSGGTNLFLTAVHEIGHSLGLGHSSDPKAVMFPTYKYVDINTFRLSADDIRGIQSLYGDPKENQRLPNPDNSEPALCDPNLSFDAVTTVGNKIFFFKDRFFWLKVSERPKTSVNLISSLWPTLPSGIEAAYEIEARNQVFLFKDDKYWLISNLRPEPNYPKSIHSFGFPNFVKKIDAAVFNPRFYRTYFFVDNQYWRYDERRQMMDPGYPKLITKNFQGIGPKIDAVFYSKNKYYYFFQGSNQFEYDFLLQRITKTLKSNSWFGC"}, "B6": {"name": "Proteinase 3: human protease (protein, UniProt P24158 28-248, looked up)", "Myeloblastin": "IVGGHEAQPHSRPYMASLQMRGNPGSHFCGGTLIHPSFVLTAAHCLRDIPQRLVNVVLGAHNVRTQEPTQQHFSVAQVFLNNYDAENKLNDVLLIQLSSPANLSASVATVQLPQQDQPVPHGTQCLAMGWGRVGAHDPPAQVLQELNVTVVTFFCRPHNICTFVPRRKAGICFGDSGGPLICDGIIQGIDSFVIWGCATRLFPDFFTRVALYVDWIRSTLR"}, "B7": {"name": "Cathepsin S: human cysteine endopeptidase (protein, UniProt P25774 115-331, looked up)", "Cathepsin S": "LPDSVDWREKGCVTEVKYQGSCGACWAFSAVGALEAQLKLKTGKLVSLSAQNLVDCSTEKYGNKGCNGGFMTTAFQYIIDNKGIDSDASYPYKAMDQKCQYDSKYRAATCSKYTELPYGREDVLKEAVANKGPVSVGVDARHPSFFLYRSGVYYEPSCTQNVNHGVLVVGYGDLNGKEYWLVKNSWGHNFGEEGYIRMARNKGNHCGIASFPSYPEI"}}, "key": {"human IgG1": {"molecular_target": "human IgG1 (Homo sapiens, UniProt P01857)", "sequence (P01857 1-330 isoform P01857-1, other chains not shown)": "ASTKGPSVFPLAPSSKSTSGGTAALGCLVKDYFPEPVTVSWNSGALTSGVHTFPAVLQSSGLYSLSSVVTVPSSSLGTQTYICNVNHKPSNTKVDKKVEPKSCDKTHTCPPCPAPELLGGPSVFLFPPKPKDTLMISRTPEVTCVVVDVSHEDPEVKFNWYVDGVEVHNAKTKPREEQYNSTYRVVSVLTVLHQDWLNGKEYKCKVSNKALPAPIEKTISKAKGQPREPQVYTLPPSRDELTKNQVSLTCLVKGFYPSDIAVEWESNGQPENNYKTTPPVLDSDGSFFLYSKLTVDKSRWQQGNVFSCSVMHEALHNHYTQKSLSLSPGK", "assay": "action of human and bacterial proteases on human IgG1 (Table 1)", "format": "biochemical", "settings": "for Major Product: None = no detectable cleavage in 24 hours; for Cleaved Site: human IgG1 heavy chain, EU numbering", "protocol": "Table 1 is a summary of the findings concerning the action of human proteases and two bacterial proteases on human IgG1. The term “Coagulation proteinases” refers to serum coagulation cascade proteins including; FXIIa, FIXa, FXa, thrombin and activated protein C; plasmin was plasminogen co-incubated with plasminogen activators; tPA, streptokinase and staphylokinase; “plasminogen activators alone” are without plasminogen; and the MMPs were recombinant proteinases obtained either as the active form or the pro-enzyme as detailed in the Materials; and “None” denotes no detectable cleavage in 24 hours. Except where indicated all enzymes where human. The residue designations are for the EU numbering system for the IgG1 antibody heavy chain where the 25 residues of SEQ ID NO: 1 corresponds to residues 219 through 243 of the complete mature heavy chain."}, "platelets [1]": {"tested_on": "platelets", "assay": "circulating platelet counts in dogs", "format": "in vivo, dog", "settings": "for platelet clearance: dose finding", "protocol": "First, the c7E3 antibody antigen binding and platelet depletion parameters were established in dogs.\nc7E3 IgG and c7E3 IgG single-cleaved by IdeS protease were also compared in vivo. Three groups of 5 animals received either saline control, intact c7E3 IgG (0.05 mg/kg) or c7E3 single-cleaved IgG (0.05 mg/kg). Platelet counts were monitored at baseline and at 2, 24, 48, 72 and 96 hours post-administration. Limiting the study to 5 days minimized the likelihood of anti-c7E3 immune responses that might confound the interpretation of the results. The results are presented in FIG. 3 as the mean platelet count±SD for each animal group at each time point. The extent of the error bars connotes the normal variability of platelet counts in different animals (for example, the predose counts for the 5 animals in the single-cleaved IgG treatment group were 175,000, 355,000, 305,000, 276,000 and 334,000 per μL, respectively).\nTo be consistent with the prior experiments, the variants of c7E3 were all administered at the 0.05 mg/kg dose. The unique aspect of the experiment (groups 6 and 7) involves the infusion of the first targeting mAb followed by the cleavage site specific mAb after a 10 minute delay. The cleavage site specific IdeS cleavage site mAb, 2095-2, was administered at 0.5 mg/kg; 10-fold higher than the dose used for all of the c7E3 variants. The higher dose was chosen in order to maximize the complexation of cleavage site specific mAb with platelet-bound c7E3 variants. All mAbs were delivered by slow infusion over a 20 minute period. Platelet counts were monitored over a 96-hour period. The platelet counts were normalized to the pre-dose count within each animal for clarity of presentation and to minimize the normal variability in numerical platelet counts in these small 3-animal groups."}, "platelets [2]": {"tested_on": "platelets", "assay": "circulating platelet counts in dogs", "format": "in vivo, dog", "settings": "dose finding"}, "[3]": {"settings": "FIG. 12 study, groups of 3 animals, c7E3 variants 0.05 mg/kg, 2095-2 0.5 mg/kg"}}}
{"molecule": "B1", "values": [{"measurement": "Major Product", "setting": "human IgG1", "result": "Fab + Fc"}, {"measurement": "Cleaved Site", "setting": "human IgG1", "result": "Lys^223-"}]}
{"molecule": "B2", "values": [{"measurement": "platelet count recovery", "setting": "platelets [1]; 0.05 mg/kg, by 96 hours", "result": "approximately 50 % of the pre-dose level"}, {"measurement": "time of platelet nadir", "setting": "platelets [1]; 0.05 mg/kg, groups of 5 animals", "result": 24, "unit": "h"}, {"measurement": "effect on platelet numbers", "setting": "platelets [1]; 0.05 mg/kg, groups of 5 animals, monitored to 96 hours", "result": "substantial decrease"}, {"measurement": "start of recovery of platelet numbers", "setting": "platelets [1]; FIG. 12 study, 0.05 mg/kg", "result": "approximately 72 hours"}, {"measurement": "time of platelet nadir", "setting": "platelets [1]; FIG. 12 study, 0.05 mg/kg", "result": "24 to 48", "unit": "h"}, {"measurement": "effect on platelet numbers", "setting": "platelets [1]; [3]", "result": "substantial platelet clearance"}, {"measurement": "platelet clearance in pilot study", "setting": "platelets [1]; after 24 hours, recovery over 5 days", "result": "profound platelet clearance"}, {"measurement": "αIIβ3 receptor blockade", "setting": "platelets [1]; calculated for the 0.05 mg/kg dose", "result": "about 5%"}, {"measurement": "platelet clearance", "setting": "platelets [1]; 0.05 mg/kg, 2 hours", "result": "little effect"}, {"measurement": "platelet clearance", "setting": "platelets [1]; 0.05 mg/kg, 24 hours", "result": "> 90", "unit": "%"}, {"measurement": "time to platelet clearance", "setting": "platelets [1]; doses >0.05 mg/kg", "result": "≤ 24", "unit": "h"}, {"measurement": "platelet clearance", "setting": "platelets [2]; 0.01 mg/kg, 2 and 24 hours", "result": "ineffective"}, {"measurement": "platelet clearance", "setting": "platelets [2]; 0.2 mg/kg, at 2 hours, maintained at 24 hours", "result": "profound platelet clearance"}]}
{"molecule": "B3", "values": [{"measurement": "effect on platelet numbers", "setting": "platelets [1]; [3]", "result": "without effect"}]}
{"molecule": "B4", "values": [{"measurement": "Major Product", "setting": "human IgG1", "result": "None"}]}
{"molecule": "B5", "values": [{"measurement": "Major Product", "setting": "human IgG1", "result": "F(ab′)2 +"}, {"measurement": "Cleaved Site", "setting": "human IgG1", "result": "Pro^232-"}]}
{"molecule": "B6", "values": [{"measurement": "Major Product", "setting": "human IgG1", "result": "None"}]}
{"molecule": "B7", "values": [{"measurement": "Major Product", "setting": "human IgG1", "result": "None"}]}
